Results on six molecules are retold here after PMC3533786 (Molecular Microbiology, 2012).

Series [1] addresses Rap1a (Resistance associated protein 1a), without its N-terminal signal peptide, His6-tagged (Serratia marcescens Db10). Kind of series: SEC. On the technique in general: SEC sorts molecules by how far they enter the pores of the column.
Series [2] has as its target Rap2a (Resistance associated protein 2a), without its N-terminal signal peptide, His6-tagged (Serratia marcescens Db10). As to the kind of experiment: SEC.
The target in series [3] is Rap2b (Resistance associated protein 2b), without its N-terminal signal peptide, His6-tagged (Serratia marcescens Db10). As to the kind of experiment: SEC.
In series [4] the target is Rap1a (Resistance associated protein 1a), without its N-terminal signal peptide, His6-tagged (Serratia marcescens Db10). Kind of series: SEC + other: quantitative in-gel SYPRO Orange staining.
Series [5] addresses Tse1 (Pseudomonas aeruginosa) (UniProt Q9I2Q1). The note with it: cited from earlier work.
Series [6] deals with the molecule itself. Kind of series: SEC.

One may read the stoichiometry N as a count of units in the complex or per binding partner. The molecule “Rap1a (Resistance associated protein 1a), without its N-terminal signal peptide, His6-tagged (natural protein)” came in with a stoichiometry N in series [1] of 2.
In the case of “Rap2a (Resistance associated protein 2a), without its N-terminal signal peptide, His6-tagged (natural protein)”, the stoichiometry N in series [2] came out at 2.
In turn, “Rap2b (Resistance associated protein 2b), without its N-terminal signal peptide, His6-tagged (natural protein)” returned a stoichiometry N in series [3] of 2.
Consider “Ssp1 (Secreted small protein 1), His6-tagged recombinant (natural protein)”, for which the stoichiometry N (Ssp1 per Rap1a (molar)) in series [4] amounted to 1.
What is called Kd is the equilibrium constant for the complex coming apart. For Tsi1 (from UniProt Q9I2Q0), the Kd in series [5] is 3 nM.

B1: Rap1b (Resistance associated protein 1b), without its N-terminal signal peptide, His6-tagged (natural protein)
chain: APIQDPVAFIKQMPYHQVVKELALSRCLAQVSDSDKAFSLDAARTANAMREWMPFDIESGDEKINVLIDKYKSRINEFHSETKDKSQGVTLNCLRLYHSPELDKLSRQLIAGNPDRTWNQDNAK
modifications: disulphide bond Cys54-Cys120
For B1, the “stoichiometry N” value in series [6] came to 2.
